US20220073621A1

Tests used:
[1] = target: Mouse PD-L1 on CHO cells (mouse) (UniProt Q9EP73); test: flow cytometry, CHO-mPD-L1 cells, Anti-mouse-IgGFc-FITC
[2] = target: Rhesus monkey PD-L1 on CHO cells (rhesus monkey); test: flow cytometry, CHO-rmPD-L1 cells, Anti-mouse-IgGFc-FITC
[3] = target: human-mouse chimeric PD-L1 on CHO cells (human-mouse chimeric); test: flow cytometry, CHO-cPD-L1 cells, Anti-human IgG Fc-FITC
[4] = target: Mouse PD-L1 on CHO cells (mouse) (UniProt Q9EP73); test: flow cytometry, CHO-mPD-L1 cells, Anti-human IgG Fc-FITC
[5] = target: Rhesus monkey PD-L1 on CHO cells (rhesus monkey); test: flow cytometry, CHO-rPD-L1 cells, Anti-human IgG Fc-FITC

Sequence of Rhesus monkey PD-L1 on CHO cells (rhesus monkey) (Q9NZQ7 other isoform, or with tags, fused parts or gaps limits assumed): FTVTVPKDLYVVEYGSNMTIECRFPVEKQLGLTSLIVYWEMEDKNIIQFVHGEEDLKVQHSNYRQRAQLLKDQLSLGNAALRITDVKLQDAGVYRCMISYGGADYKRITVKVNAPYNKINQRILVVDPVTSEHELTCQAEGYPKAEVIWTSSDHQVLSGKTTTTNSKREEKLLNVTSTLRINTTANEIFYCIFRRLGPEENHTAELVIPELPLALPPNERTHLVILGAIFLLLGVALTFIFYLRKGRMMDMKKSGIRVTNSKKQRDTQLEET
Sequence of Mouse PD-L1 on CHO cells (mouse) (Q9EP73 19-290 limits assumed): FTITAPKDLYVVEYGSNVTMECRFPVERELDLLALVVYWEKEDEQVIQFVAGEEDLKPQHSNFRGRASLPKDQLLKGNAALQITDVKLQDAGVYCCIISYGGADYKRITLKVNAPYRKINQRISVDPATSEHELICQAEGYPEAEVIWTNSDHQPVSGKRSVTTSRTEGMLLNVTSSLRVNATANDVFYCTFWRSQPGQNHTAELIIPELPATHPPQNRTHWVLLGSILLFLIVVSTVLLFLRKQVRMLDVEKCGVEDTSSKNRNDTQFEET
Sequence of human-mouse chimeric PD-L1 on CHO cells (human-mouse chimeric) (Q9EP73 other isoform, or with tags, fused parts or gaps mutant limits assumed): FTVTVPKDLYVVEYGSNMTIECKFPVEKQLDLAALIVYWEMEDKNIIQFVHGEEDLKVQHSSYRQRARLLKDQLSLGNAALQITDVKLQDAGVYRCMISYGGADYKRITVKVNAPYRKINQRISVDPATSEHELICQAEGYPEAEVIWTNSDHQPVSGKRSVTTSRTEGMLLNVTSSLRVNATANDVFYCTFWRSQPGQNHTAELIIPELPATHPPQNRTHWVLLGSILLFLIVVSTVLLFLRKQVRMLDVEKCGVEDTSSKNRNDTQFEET

NC
% cells in the FITC-positive gate [1]: 5.52% | % cells in the FITC-positive gate [2]: 1.13% | % cells in the FITC-positive gate [3]: 0.779% | % cells in the FITC-positive gate [4]: 0.681% | % cells in the FITC-positive gate [5]: 2.74%
